Consider 25 molecules from US20200230168, “NUCLEIC ACID OLIGOMERS AND USES THEREFOR” (Queensland University of Technology, published 2020).

One series concerns the target THOC4 (ALYREF) (UniProt Q86V81 Q86V81:2-257). The experiment in a line: SPR. A general note: SPR reads the build-up and loss of mass on a sensor chip optically.
Regarding UGUGCUAUUCUGUGAAUU (ssRNA, 2'-OMe all, full PS) [DKLS484655 (SEQ 22)], the binding signal is 0.22 normalized Rmax.

UCUCCCAGCAUGUGCCAU (ssRNA, full PS) [DKLS658030 (SEQ 8)]: the binding signal was 0.52 normalized Rmax.

As for GUGCAUGGAAUCACGGA (ssRNA, 2'-OMe all, full PS) [Open_A 3' truncation 17 nt], the binding signal stood at 1 normalized Rmax.

Take GCGGGUCCUCUACGCACUGA (ssRNA, 2'-OMe all, full PS) [DKLS649547 (SEQ 53)]: the binding signal was 0.85 normalized Rmax.

UGCUAUCUUAUCACCUUUAG (ssRNA, 2'-OMe all, full PS) [DKLS331584 (SEQ 26)] came in with a binding signal of 0.15 normalized Rmax.

Turning to GAGGCAGCAGUACGAC (ssRNA, 2'-OMe all, full PS) [LSA_ATG both-end truncation 16 nt], the binding signal amounted to 0.44 normalized Rmax.

GGCACGUCCGCCAGUCAUGU (ssRNA, 2'-OMe all, full PS) [DKLS656105 (SEQ 56)] came in with a binding signal of 0.23 normalized Rmax.

With ACAUCGUUACCAGACAGUGUUA (ssRNA, 2'-OMe all, full PS) [DKLS687764 (SEQ 34)], the binding signal was 0.75 normalized Rmax.

In turn, CAGCAGCAGAGUCUUCAUCAU (ssRNA, 2'-OMe all, full PS) [DKLS354527 (SEQ 21)] returned a binding signal of 0.37 normalized Rmax.

Take UCUCCCAGCAUGUGCCAU (ssRNA, 2'-OMe all, full PS) [DKLS832163 (SEQ 11)]: the binding signal turned out to be 0.33 normalized Rmax.

GGCAGCAGUACGACGG (ssRNA, 2'-OMe all, full PS) [LSA_ATG 5' truncation 16 nt]: the binding signal worked out at 0.49 normalized Rmax.

Consider CCUCUCUGCCGCUCUUGCCU (ssRNA, 2'-OMe all, full PS) [DKLS420640 (SEQ 57)], for which the binding signal is 0.03 normalized Rmax.

CACGUACCUUAGUGCCUCAC (ssRNA, 2'-OMe all, ZEN at both ends) [Open_L ZEN (DKLS665920)]: the binding signal is -0.15 normalized Rmax.

In turn, UUGACAGAUUAAGUCCAUUC (ssRNA, 2'-OMe all, full PS) [DKLS675388 (SEQ 51)] showed a binding signal of 0.15 normalized Rmax.

Regarding GAGGCAGCAGUACGACGG (ssRNA, 2'-OMe all, full PS) [LSA_ATG 5' truncation 18 nt], the binding signal amounted to 1.06 normalized Rmax.

As for GGUCGUAAUACUUUCACUUA (ssRNA, 2'-OMe all, full PS) [DKLS629224 (SEQ 12)], the binding signal turned out to be 0.47 normalized Rmax.

Take GUCUCCGUCGUCAUGCUGCC (ssRNA, 2'-OMe all, full PS) [ASO_ATG (DKLS421748)]: the binding signal was 0.33 normalized Rmax.

GUGCAUGGAAUCACGG (ssRNA, 2'-OMe all, full PS) [Open_A 3' truncation 16 nt] displayed a binding signal of 0.29 normalized Rmax.

As to CCAUCUGUAAUUACAAAAUUAAA (ssRNA, 2'-OMe all, full PS) [DKLS765774 (SEQ 16)], the binding signal was determined as 0.97 normalized Rmax.

CAGAGGCAGCAGUACGA (ssRNA, 2'-OMe all, full PS) [LSA_ATG 3' truncation 17 nt] returned a binding signal of 1.46 normalized Rmax.

UCAAGGAAGAUGGCAUUUCU (ssRNA, 2'-OMe all, full PS) [DKLS687764 (SEQ 14)] returned a binding signal of 0.55 normalized Rmax.

In turn, GUGCAUGGAAUCACGGAGU (ssRNA, 2'-OMe all, full PS) [Open_A 3' truncation 19 nt] had a binding signal of 0.47 normalized Rmax.

CAGAGGCAGCAGUACGACG (ssRNA, 2'-OMe all, full PS) [LSA_ATG 3' truncation 19 nt] gave a binding signal of 0.92 normalized Rmax.

For GCUCCAGCAUCUGCUGCUUC (ssRNA, 2'-OMe all, full PS) [DKLS491049 (SEQ 32)], the binding signal amounted to 0.26 normalized Rmax.

A further series deals with hSSB1 (Homo sapiens, UniProt Q9BQ15 Q9BQ15:1-211). In words: SPR.
Sequence of hSSB1 (Q9BQ15 whole entry, one chain of several): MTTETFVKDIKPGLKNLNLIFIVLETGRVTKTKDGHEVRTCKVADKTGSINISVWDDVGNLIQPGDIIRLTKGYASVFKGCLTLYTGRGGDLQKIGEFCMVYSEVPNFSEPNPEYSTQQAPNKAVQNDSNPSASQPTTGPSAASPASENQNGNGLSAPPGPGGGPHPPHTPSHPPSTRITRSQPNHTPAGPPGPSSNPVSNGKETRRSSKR
CAGAGGCAGCAGUACGACGG (ssRNA, 2'-OMe all, ZEN at both ends) [LSA_ATG ZEN (DKLS649218)]: the binding signal turned out to be 0.15 normalized Rmax.

Molecule UGUGCUAUUCUGUGAAUU (ssRNA, 2'-OMe all, full PS) [DKLS484655 (SEQ 22)] showed a binding signal of 0.43 normalized Rmax.

On to UCUCCCAGCAUGUGCCAU (ssRNA, full PS) [DKLS658030 (SEQ 8)], for which the binding signal came to 0.51 normalized Rmax.

GUGCAUGGAAUCACGGA (ssRNA, 2'-OMe all, full PS) [Open_A 3' truncation 17 nt] returned a binding signal of 2.06 normalized Rmax.

On to GCGGGUCCUCUACGCACUGA (ssRNA, 2'-OMe all, full PS) [DKLS649547 (SEQ 53)], for which the binding signal worked out at 1.55 normalized Rmax.

UGCUAUCUUAUCACCUUUAG (ssRNA, 2'-OMe all, full PS) [DKLS331584 (SEQ 26)] returned a binding signal of 0.48 normalized Rmax.

The molecule GAGGCAGCAGUACGAC (ssRNA, 2'-OMe all, full PS) [LSA_ATG both-end truncation 16 nt] showed a binding signal of 0.67 normalized Rmax.

GGCACGUCCGCCAGUCAUGU (ssRNA, 2'-OMe all, full PS) [DKLS656105 (SEQ 56)] yielded a binding signal of 0.73 normalized Rmax.

In turn, ACAUCGUUACCAGACAGUGUUA (ssRNA, 2'-OMe all, full PS) [DKLS687764 (SEQ 34)] displayed a binding signal of 1.47 normalized Rmax.

Molecule CAGCAGCAGAGUCUUCAUCAU (ssRNA, 2'-OMe all, full PS) [DKLS354527 (SEQ 21)] registered a binding signal of 0.91 normalized Rmax.

In turn, UCUCCCAGCAUGUGCCAU (ssRNA, 2'-OMe all, full PS) [DKLS832163 (SEQ 11)] showed a binding signal of 0.31 normalized Rmax.

Regarding GGCAGCAGUACGACGG (ssRNA, 2'-OMe all, full PS) [LSA_ATG 5' truncation 16 nt], the binding signal was 0.64 normalized Rmax.

The molecule CCUCUCUGCCGCUCUUGCCU (ssRNA, 2'-OMe all, full PS) [DKLS420640 (SEQ 57)] showed a binding signal of 0.48 normalized Rmax.

UUGACAGAUUAAGUCCAUUC (ssRNA, 2'-OMe all, full PS) [DKLS675388 (SEQ 51)] gave a binding signal of 0.89 normalized Rmax.

In the case of GAGGCAGCAGUACGACGG (ssRNA, 2'-OMe all, full PS) [LSA_ATG 5' truncation 18 nt], the binding signal was 0.77 normalized Rmax.

In the case of GGUCGUAAUACUUUCACUUA (ssRNA, 2'-OMe all, full PS) [DKLS629224 (SEQ 12)], the binding signal was 0.97 normalized Rmax.

Molecule GUCUCCGUCGUCAUGCUGCC (ssRNA, 2'-OMe all, full PS) [ASO_ATG (DKLS421748)] had a binding signal of 0.64 normalized Rmax.

In the case of GUGCAUGGAAUCACGG (ssRNA, 2'-OMe all, full PS) [Open_A 3' truncation 16 nt], the binding signal came to 0.66 normalized Rmax.

The molecule CCAUCUGUAAUUACAAAAUUAAA (ssRNA, 2'-OMe all, full PS) [DKLS765774 (SEQ 16)] yielded a binding signal of 1.93 normalized Rmax.

Consider CAGAGGCAGCAGUACGA (ssRNA, 2'-OMe all, full PS) [LSA_ATG 3' truncation 17 nt], for which the binding signal stood at 1.19 normalized Rmax.

The molecule UCAAGGAAGAUGGCAUUUCU (ssRNA, 2'-OMe all, full PS) [DKLS687764 (SEQ 14)] had a binding signal of 1.12 normalized Rmax.

On to GUGCAUGGAAUCACGGAGU (ssRNA, 2'-OMe all, full PS) [Open_A 3' truncation 19 nt], for which the binding signal came to 1.24 normalized Rmax.

As for CAGAGGCAGCAGUACGACG (ssRNA, 2'-OMe all, full PS) [LSA_ATG 3' truncation 19 nt], the binding signal was determined as 0.78 normalized Rmax.

GCUCCAGCAUCUGCUGCUUC (ssRNA, 2'-OMe all, full PS) [DKLS491049 (SEQ 32)]: the binding signal amounted to 0.65 normalized Rmax.
